One substance from article PMC11662662 can be followed below.

The target of the assay is H3K23ub mononucleosomes (H3 'K23ub' thioether mimic), P68431;P0CG48;P04908;O60814;P62805. As to the kind of experiment: Alpha-screen proximity assay. In general terms: Bead proximity is the source of the signal in Alpha formats.

One may read the Kd as the free concentration of one partner at which half of the binding sites on the other are occupied at equilibrium, for simple one-to-one binding. A lower Kd goes with tighter binding.

With “recombinant DNMT1 RFTS domain WT (His-MBP-RFTS) (from UniProt P26358) P378A; L381A”, the Kd came out at 140 nM.
